From the Human Domainome abundance scans (Beltran et al. 2025)
± gives the uncertainty stated by the source.

B1: Kinesin-like protein KIF16B, residues 1213 to 1273; numbered along this chain, Q96L93 (parent)
chain: ETWTVFRRYSRFREMHKTLKLKYAELAALEFPPKKLFGNKDERVIAERRSHLEKYLRDFFS

Variants of: B1
Assay: abundance fitness (aPCA) (normalised: wild type 0, dead -1); higher = more abundant; growth selection in yeast, the domain comes from the species named
Settings: Homo sapiens

| Variant | abundance fitness |
| --- | --- |
| ETWTVFRRYSRFREMHKTLKLKYAELAALEFPPKKLFGNKIERVIAERRSHLEKYLRDFFS [D41I] | 0.394 ± 0.1 |
| ETWTVFRRYSRFREMHKTLKLKYAELAALEFPPKKLFGNKVERVIAERRSHLEKYLRDFFS [D41V] | 0.159 ± 0.069 |
| ETWTVFRRYSRFREMHKTLKLKYAELAALEFPPKKLFGNKRERVIAERRSHLEKYLRDFFS [D41R] | -0.184 ± 0.048 |
| ETWTVFRRYSRFREMHKTLKLKYAELAALEFPPKKLFGNKHERVIAERRSHLEKYLRDFFS [D41H] | -0.025 ± 0.22 |
| ETWTVFRRYSRFREMHKTLKLKYAELAALEFPPKKLFGNKLERVIAERRSHLEKYLRDFFS [D41L] | 0.332 ± 0.044 |
| ETWTVFRRYSRFREMHKTLKLKYAELAALEFPPKKLFGNKTERVIAERRSHLEKYLRDFFS [D41T] | -0.101 ± 0.12 |
| ETWTVFRRYSRFREMHKTLKLKYAELAALEFPPKKLFGNKMERVIAERRSHLEKYLRDFFS [D41M] | 0.231 ± 0.075 |
| ETWTVFRRYSRFREMHKTLKLKYAELAALEFPPKKLFGNKSERVIAERRSHLEKYLRDFFS [D41S] | 0.065 ± 0.061 |
| ETWTVFRRYSRFREMHKTLKLKYAELAALEFPPKKLFGNKWERVIAERRSHLEKYLRDFFS [D41W] | 0.354 ± 0.059 |
| ETWTVFRRYSRFREMHKTLKLKYAELAALEFPPKKLFGNKQERVIAERRSHLEKYLRDFFS [D41Q] | -0.064 ± 0.14 |
| ETWTVFRRYSRFREMHKTLKLKYAELAALEFPPKKLFGNKKERVIAERRSHLEKYLRDFFS [D41K] | 0.028 ± 0.073 |
| ETWTVFRRYSRFREMHKTLKLKYAELAALEFPPKKLFGNKPERVIAERRSHLEKYLRDFFS [D41P] | -0.167 ± 0.11 |
| ETWTVFRRYSRFREMHKTLKLKYAELAALEFPPKKLFGNKNERVIAERRSHLEKYLRDFFS [D41N] | 0.08 ± 0.07 |
| ETWTVFRRYSRFREMHKTLKLKYAELAALEFPPKKLFGNKYERVIAERRSHLEKYLRDFFS [D41Y] | 0.057 ± 0.11 |
| ETWTVFRRYSRFREMHKTLKLKYAELAALEFPPKKLFGNKDERVMAERRSHLEKYLRDFFS [I45M] | 0.062 ± 0.047 |
| ETWTVFRRYSRFREMHKTLKLKYAELAALEFPPKKLFGNKDERVHAERRSHLEKYLRDFFS [I45H] | 0.11 ± 0.062 |
| ETWTVFRRYSRFREMHKTLKLKYAELAALEFPPKKLFGNKDERVRAERRSHLEKYLRDFFS [I45R] | 0.133 ± 0.039 |
| ETWTVFRRYSRFREMHKTLKLKYAELAALEFPPKKLFGNKDERVNAERRSHLEKYLRDFFS [I45N] | 0.031 ± 0.054 |
| ETWTVFRRYSRFREMHKTLKLKYAELAALEFPPKKLFGNKDERVDAERRSHLEKYLRDFFS [I45D] | 0.057 ± 0.061 |
| ETWTVFRRYSRFREMHKTLKLKYAELAALEFPPKKLFGNKDERVCAERRSHLEKYLRDFFS [I45C] | 0.133 ± 0.043 |
| ETWTVFRRYSRFREMHKTLKLKYAELAALEFPPKKLFGNKDERVKAERRSHLEKYLRDFFS [I45K] | 0.281 ± 0.053 |
| ETWTVFRRYSRFREMHKTLKLKYAELAALEFPPKKLFGNKDERVFAERRSHLEKYLRDFFS [I45F] | 0.158 ± 0.06 |

| Variant | abundance fitness |
| --- | --- |
| ETWTVFRRYSRFREMHKTLKLKYAELAALEFPPKKLFGNKDERVWAERRSHLEKYLRDFFS [I45W] | 0.35 ± 0.052 |
| ETWTVFRRYSRFREMHKTLKLKYAELAALEFPPKKLFGNKDERVYAERRSHLEKYLRDFFS [I45Y] | -0.274 ± 0.099 |
| ETWTVFRRYSRFREMHKTLKLKYAELAALEFPPKKLFGNKDERVVAERRSHLEKYLRDFFS [I45V] | 0.009 ± 0.048 |
| ETWTVFRRYSRFREMHKTLKLKYAELAALEFPPKKLFGNKDERVEAERRSHLEKYLRDFFS [I45E] | 0.107 ± 0.071 |
| ETWTVFRRYSRFREMHKTLKLKYAELAALEFPPKKLFGNKDERVTAERRSHLEKYLRDFFS [I45T] | 0.158 ± 0.043 |
| ETWTVFRRYSRFREMHKTLKLKYAELAALEFPPKKLFGNKDERVGAERRSHLEKYLRDFFS [I45G] | 0.264 ± 0.043 |
| ETWTVFRRYSRFREMHKTLKLKYAELAALEFPPKKLFGNKDERVLAERRSHLEKYLRDFFS [I45L] | 0.051 ± 0.044 |
| ETWTVFRRYSRFREMHKTLKLKYAELAALEFPPKKLFGNKDERVQAERRSHLEKYLRDFFS [I45Q] | 0.174 ± 0.046 |
| ETWTVFRRYSRFREMHKTLKLKYAELAALEFPPKKLFGNKDERVPAERRSHLEKYLRDFFS [I45P] | 0.271 ± 0.048 |
| ETWTVFRRYSRFREMHKTLKLKYAELAALEFPPKKLFGNKDERVAAERRSHLEKYLRDFFS [I45A] | 0.177 ± 0.041 |
| ETWTVFRRYSRFREMHKTLKLKYAELAALEFPPKKLFGNKDERCIAERRSHLEKYLRDFFS [V44C] | 0.316 ± 0.19 |
| ETWTVFRRYSRFREMHKTLKLKYAELAALEFPPKKLFGNKDERAIAERRSHLEKYLRDFFS [V44A] | 0.029 ± 0.086 |
| ETWTVFRRYSRFREMHKTLKLKYAELAALEFPPKKLFGNKDERSIAERRSHLEKYLRDFFS [V44S] | 0.351 ± 0.086 |
| ETWTVFRRYSRFREMHKTLKLKYAELAALEFPPKKLFGNKDERTIAERRSHLEKYLRDFFS [V44T] | 0.263 ± 0.16 |
| ETWTVFRRYSRFREMHKTLKLKYAELAALEFPPKKLFGNKDERYIAERRSHLEKYLRDFFS [V44Y] | -0.215 ± 0.34 |
| ETWTVFRRYSRFREMHKTLKLKYAELAALEFPPKKLFGNKDERGIAERRSHLEKYLRDFFS [V44G] | 0.188 ± 0.053 |
| ETWTVFRRYSRFREMHKTLKLKYAELAALEFPPKKLFGNKDERRIAERRSHLEKYLRDFFS [V44R] | 0.117 ± 0.051 |
| ETWTVFRRYSRFREMHKTLKLKYAELAALEFPPKKLFGNKDERPIAERRSHLEKYLRDFFS [V44P] | 0.299 ± 0.12 |
| ETWTVFRRYSRFREMHKTLKLKYAELAALEFPPKKLFGNKDEREIAERRSHLEKYLRDFFS [V44E] | -0.145 ± 0.11 |
| ETWTVFRRYSRFREMHKTLKLKYAELAALEFPPKKLFGNKDERNIAERRSHLEKYLRDFFS [V44N] | -0.06 ± 0.13 |
| ETWTVFRRYSRFREMHKTLKLKYAELAALEFPPKKLFGNKDERDIAERRSHLEKYLRDFFS [V44D] | 0.24 ± 0.19 |
